± gives the uncertainty stated by the source.
Assay: protein stability index of a GFP-peptide fusion (yeast GPS) (PSI 1-4); higher = more stable; sorted into four equal gates, so the index is relative within each strain
Conditions: pdr5∆
Method in brief: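 The protein stability index combines read frequencies across sorting gates, each weighted by its gate number and then summed. To obtain those frequencies, a pooled yeast library of GFP fusions to tiled 17-residue yeast protein peptides, on a plasmid also expressing Cherry, was grown to mid-log phase in leucine-free medium. The cells were sorted into four equal gates by GFP/Cherry ratio before plasmid amplification by PCR and Illumina sequencing.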

Q: With GKMVRAQDVALAKKWFL [PRP8] as the sequence, how does the protein stability index read?
A: 2.51 ± 0.14

Q: With GLDQSRIPFSERKLKFS [FAS1] as the sequence, how does the protein stability index read?
A: 1.29 ± 0.059

Same assay, conditions: san1∆

Q: For FMDVITLDATNENFRLV [RPS4A], which protein stability index is on record?
A: 2.72 ± 0.25

Q: Which protein stability index does the source give for FMGTAFNQEGDYNFKYG [PRP8] here?
A: 3.34 ± 0.098

Q: For FNIISMTLKEMYQMITM [SMC4], which protein stability index is on record?
A: 2.22 ± 0.075

Q: For FNKYADPTLTTTTSFTT [RPN4], which protein stability index is on record?
A: 2.26 ± 0.04

Q: Which protein stability index does the source give for FNNGDDDDYGDEEDPNE [RPC31] here?
A: 2.98 ± 0.088

Q: For FNRALDQSISKLQSWDK [NNF1], which protein stability index is on record?
A: 1.51 ± 0.085

Q: With FNYQGDELVLNFENDNE [REC8] as the sequence, how does the protein stability index read?
A: 2.79 ± 0.11

Q: Which protein stability index does the source give for FPESIWKDFTVEIAFLF [YCG1] here?
A: 2.33 ± 0.067

Q: Which protein stability index does the source give for FPFVLKVDNDLRIELQS [SRB8] here?
A: 2.61 ± 0.098

Q: Which protein stability index does the source give for FPPPSVAARAEILRIHS [RPT6] here?
A: 1.54 ± 0.12

Q: Which protein stability index does the source give for FPSIPLPINGPITNKER [RPC31] here?
A: 2.17 ± 0.082

Q: With FPVDPTTPVKLGPGIYC [RRP40] as the sequence, how does the protein stability index read?
A: 2.4 ± 0.052

Q: Which protein stability index does the source give for FPVSLSQPSKKSFANHT [SIR4] here?
A: 3.01 ± 0.054

Q: With FQDYLTQQAVNLEKNYL [IRR1] as the sequence, how does the protein stability index read?
A: 2.02 ± 0.16

Q: Which protein stability index does the source give for FQEGVVVAKKDFNQAKH [RPS10A] here?
A: 2.91 ± 0.16

Q: For FQLLEPLSTYNKNGNAV [PGD1], which protein stability index is on record?
A: 2.77 ± 0.05

Q: For FQNSKSASLFKQRKNPR [RPL24A], which protein stability index is on record?
A: 2.49 ± 0.1

Q: With FQTIFSKQDLIHSLIPV [SIN4] as the sequence, how does the protein stability index read?
A: 1.66 ± 0.11

Q: For FQTPFRRRREGKTDYYQ [RPL5], which protein stability index is on record?
A: 2.97 ± 0.12

Q: With FREWQYFKLSITSFDQD [POP8] as the sequence, how does the protein stability index read?
A: 2.52 ± 0.061

Q: With FRHHVQIQQQQQKQQQQ [SNF5] as the sequence, how does the protein stability index read?
A: 3.07 ± 0.13

Q: With FRVNNASINTSATVKTS [ECM29] as the sequence, how does the protein stability index read?
A: 1.95 ± 0.17

Q: Which protein stability index does the source give for FRYITTWENEFLDSQRV [PRP8] here?
A: 2.48 ± 0.061

Q: With FSISYKPPTQKTDTKVS [SRP21] as the sequence, how does the protein stability index read?
A: 1.98 ± 0.059

Q: With FSKKGNEPLSEIEIEGV [YAR002W/NUP60] as the sequence, how does the protein stability index read?
A: 3.04 ± 0.08

Q: For FSQFWYWFPLAHFLSLS [RPN2], which protein stability index is on record?
A: 1.21 ± 0.11

Q: With FTAGARAKIVKAGGECI [RPL18A] as the sequence, how does the protein stability index read?
A: 1.18 ± 0.17

Q: For FTITVARKYLQTRWGLP [FAS2], which protein stability index is on record?
A: 1.36 ± 0.21

Q: For FTKYKPARSSSLRSNVV [YAR002W/NUP60], which protein stability index is on record?
A: 2.17 ± 0.07

Q: For FTNGVLAVTNLLIISCI [YML031W/NDC1], which protein stability index is on record?
A: 1.79 ± 0.14

Q: Which protein stability index does the source give for FVCRGMAATQTIEQSPR [ECM29] here?
A: 1.58 ± 0.23

Q: For FVDENTFQRVCQYMVAC [RPN1], which protein stability index is on record?
A: 2.77 ± 0.095

Q: With FVEEQNVYVLPKNLLKK [PRP8] as the sequence, how does the protein stability index read?
A: 2.54 ± 0.07

Q: For FVFTNEPLTEIKNVIVS [RPP0], which protein stability index is on record?
A: 3.12 ± 0.076

Q: Which protein stability index does the source give for FVKPGTALDAEGAARGT [DIS3] here?
A: 3.24 ± 0.095

Q: With FVNETPRVIEPVYTAQW [PRP8] as the sequence, how does the protein stability index read?
A: 2.19 ± 0.16

Q: Which protein stability index does the source give for FVNGVWHGVHRNPARLM [RPB2] here?
A: 3.39 ± 0.058

Q: With FVSNMGFDIQKSCEPVS [SIR4] as the sequence, how does the protein stability index read?
A: 1.68 ± 0.24

Q: Which protein stability index does the source give for FVSSGFDTSIKLDIISD [RPN14] here?
A: 2.23 ± 0.057

Q: With FVSYFGKQIKSTIYNWG [YML103C/NUP188] as the sequence, how does the protein stability index read?
A: 1.47 ± 0.099

Q: Which protein stability index does the source give for FYKNKYSSKPYKVDNMT [RPN2] here?
A: 2.79 ± 0.081

Q: For FYVQDVYKDNLSFIQVR [RPO31], which protein stability index is on record?
A: 1.92 ± 0.068

Q: For GAAPYAAKLKQTENDLK [RPT1], which protein stability index is on record?
A: 2.31 ± 0.24

Q: For GAGSIFTSHTRLRQGAA [RPL2A], which protein stability index is on record?
A: 3.17 ± 0.049

Q: With GAMTPEEIFFKSVRILK [RPC40] as the sequence, how does the protein stability index read?
A: 2.96 ± 0.14

Q: With GAVIQLLKSTGLHPFEV [RPB4] as the sequence, how does the protein stability index read?
A: 3.07 ± 0.2

Q: Which protein stability index does the source give for GCIKIYSSRVDSVTTET [BRN1] here?
A: 2.35 ± 0.21

Q: With GDDESKIPAVEYFGGES [FAS1] as the sequence, how does the protein stability index read?
A: 2.97 ± 0.2

Q: For GDIESLFEQLQTVSNKE [SRP54], which protein stability index is on record?
A: 3.18 ± 0.045

Q: Which protein stability index does the source give for GDLASLVLLNGRLRNKS [RPP1] here?
A: 2.83 ± 0.04

Q: Which protein stability index does the source give for GDQFLRYVNLLGVTYSS [PRE4] here?
A: 2.1 ± 0.075

Q: With GDRGALARASGNYVIII [RPL2A] as the sequence, how does the protein stability index read?
A: 2.84 ± 0.11

Q: For GDRQRLGEEHPLQVARC [RPT1], which protein stability index is on record?
A: 3.25 ± 0.22

Q: With GDVSSGLFEKSTVSANH [BRN1] as the sequence, how does the protein stability index read?
A: 2.74 ± 0.11

Q: With GDYSQATVLSRKILKKT [RPN5] as the sequence, how does the protein stability index read?
A: 2.75 ± 0.06

Q: Which protein stability index does the source give for GEIGDFFSSDWRFLQIL [POP1] here?
A: 2.94 ± 0.066

Q: With GEIQLLFQRQKLHEFYL [IRR1] as the sequence, how does the protein stability index read?
A: 2.63 ± 0.061

Q: Which protein stability index does the source give for GEITKTENEKFISYHDK [NUT1] here?
A: 3.39 ± 0.057

Q: For GEKNFTSAHLKLKEMQK [SMC4], which protein stability index is on record?
A: 3.27 ± 0.078

Q: For GEKNSDDYSNEDNEMLE [YJR042W/NUP85], which protein stability index is on record?
A: 2.06 ± 0.29

Q: With GELFLNESWKSSFEKFN [SRP72] as the sequence, how does the protein stability index read?
A: 2.79 ± 0.12

Q: For GFIDASCIAVMAGLMHF [RRP45], which protein stability index is on record?
A: 1.85 ± 0.082

Q: With GFPSAPQPLFMEDPPST [YMR153W/NUP53] as the sequence, how does the protein stability index read?
A: 2.98 ± 0.053

Q: With GGDSDANGTFMDFGVDP [RPN10] as the sequence, how does the protein stability index read?
A: 3.23 ± 0.13

Q: Which protein stability index does the source give for GGEKTVAALALLFAINS [SMC1] here?
A: 1.12 ± 0.23

Q: With GGESDSALILMYKGFGL [UBP6] as the sequence, how does the protein stability index read?
A: 3.15 ± 0.085

Q: With GGLKSCDLDFPLRENTN [YDL116W/NUP84] as the sequence, how does the protein stability index read?
A: 2.25 ± 0.077

Q: With GGLQKGKLVVSQEMVPR [SIR3] as the sequence, how does the protein stability index read?
A: 2.32 ± 0.076

Q: Which protein stability index does the source give for GGLTKQIKEIKEVIELP [RPT6] here?
A: 3.48 ± 0.27

Q: Which protein stability index does the source give for GGNFKDLSTLVHSSSPS [GAL11] here?
A: 1.59 ± 0.089

Q: For GGNSNKSPPQFFYNISS [SIN4], which protein stability index is on record?
A: 2.76 ± 0.037

Q: Which protein stability index does the source give for GGRMFAPTKTWRKWNVK [RPL4A] here?
A: 3.07 ± 0.065

Q: For GGVDVGPSVESYELRNT [SNF5], which protein stability index is on record?
A: 3.04 ± 0.075

Q: For GHNDWVSQVRVVPNEKA [ASC1], which protein stability index is on record?
A: 2.94 ± 0.066

Q: For GIEYNRVTNTTSTDFPG [RPC40], which protein stability index is on record?
A: 2.73 ± 0.082

Q: For GIHDGHIKKLLHQYYGD [FAS1], which protein stability index is on record?
A: 1.85 ± 0.098

Q: For GIIEPSLKALASKYNCD [RPL40A], which protein stability index is on record?
A: 3.09 ± 0.085

Q: Which protein stability index does the source give for GIKAKHDKNIQKLLKQL [ISW2] here?
A: 2.45 ± 0.051

Q: With GIKVLPETCLFVSYFGK [YML103C/NUP188] as the sequence, how does the protein stability index read?
A: 2.44 ± 0.074

Q: For GIKYHATPPLKRFKDME [SMC1], which protein stability index is on record?
A: 2.95 ± 0.07

Q: For GILLETISVPQIRDVME [RRP6], which protein stability index is on record?
A: 2.89 ± 0.056

Q: Which protein stability index does the source give for GILYMGQGEQVDDVLET [RPN1] here?
A: 1.07 ± 0.18

Q: With GINNLSEIWDVSRGQSA [PRP8] as the sequence, how does the protein stability index read?
A: 2.74 ± 0.29

Q: For GINSKSGKPFIAGFDLI [PUP3], which protein stability index is on record?
A: 3.3 ± 0.13

Q: Which protein stability index does the source give for GISEVQARKSKSVSFYA [RPT5] here?
A: 3.37 ± 0.056

Q: For GISMFDYISGISVGLYD [SKI6], which protein stability index is on record?
A: 2.03 ± 0.069

Q: Which protein stability index does the source give for GISSTLVSANNDNNSPH [YLR018C/POM34] here?
A: 3.01 ± 0.058

Q: With GISVPFHSTYLMNGVKP [FAS1] as the sequence, how does the protein stability index read?
A: 1.27 ± 0.074

Q: Which protein stability index does the source give for GKEFGDVSVKMGNTKVH [RRP45] here?
A: 2.25 ± 0.069

Q: Which protein stability index does the source give for GKISKPRFLNKQERSKQ [PRP28] here?
A: 3.33 ± 0.11

Q: Which protein stability index does the source give for GKKASLNVGNVLPLGSV [RPL2A] here?
A: 2.51 ± 0.078

Q: Which protein stability index does the source give for GKLEVPGYVDIVKTSSG [RPS19A] here?
A: 3.19 ± 0.07

Q: With GKLISNLSSTPMETLLS [YML031W/NDC1] as the sequence, how does the protein stability index read?
A: 2.51 ± 0.11

Q: Which protein stability index does the source give for GKMVRAQDVALAKKWFL [PRP8] here?
A: 2.57 ± 0.23

From the supplement of paper PMC9732359
